# Measured values as given in publication PMC2190708 (Nucleic Acids Research, 2007).
# T1: CthPnkp (Acetivibrio thermocellus, UniProt A3DJ38)
# T1 sequence (A3DJ38 1-870): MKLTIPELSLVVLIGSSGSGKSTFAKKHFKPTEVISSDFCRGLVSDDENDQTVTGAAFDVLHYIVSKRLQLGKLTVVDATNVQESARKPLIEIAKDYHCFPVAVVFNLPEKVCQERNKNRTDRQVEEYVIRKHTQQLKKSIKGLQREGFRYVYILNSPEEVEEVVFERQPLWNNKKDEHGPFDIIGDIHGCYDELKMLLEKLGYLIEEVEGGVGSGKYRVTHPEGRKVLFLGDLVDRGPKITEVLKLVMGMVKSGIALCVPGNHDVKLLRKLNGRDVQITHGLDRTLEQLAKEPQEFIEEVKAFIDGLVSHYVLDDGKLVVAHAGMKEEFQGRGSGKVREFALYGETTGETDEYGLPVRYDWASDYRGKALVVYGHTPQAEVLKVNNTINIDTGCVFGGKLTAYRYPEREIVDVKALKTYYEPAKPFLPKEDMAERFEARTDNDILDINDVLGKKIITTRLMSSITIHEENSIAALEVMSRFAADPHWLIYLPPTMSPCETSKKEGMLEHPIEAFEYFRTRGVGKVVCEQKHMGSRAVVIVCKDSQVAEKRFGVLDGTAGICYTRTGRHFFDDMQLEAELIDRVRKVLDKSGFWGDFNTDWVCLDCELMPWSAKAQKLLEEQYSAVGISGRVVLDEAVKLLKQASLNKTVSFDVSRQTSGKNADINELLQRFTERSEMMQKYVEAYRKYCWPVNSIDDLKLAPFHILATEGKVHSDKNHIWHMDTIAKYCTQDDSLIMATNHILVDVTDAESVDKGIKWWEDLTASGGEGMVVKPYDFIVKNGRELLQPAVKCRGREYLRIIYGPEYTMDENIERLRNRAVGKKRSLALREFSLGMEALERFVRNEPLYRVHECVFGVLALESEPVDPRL
# How the values were obtained:
# CthPnkp = biological target: T1, CthPnkp; assay: p-nitrophenol release; format: biochemical; conditions: Tris-HCl pH 7.0, 0.5 mM MnCl2, data not shown
# purified protein [1] = substrate: O=[N+]([O-])c1ccc(OP(=O)(O)O)cc1; assay: purified protein; conditions: Mn2+; exact conditions of titration not given, data not shown
# purified protein [2] = substrate: O=[N+]([O-])c1ccc(OP(=O)(O)Oc2ccc([N+](=O)[O-])cc2)cc1; assay: purified protein; conditions: Mn2+; exact conditions of titration not given, data not shown
Molecule,Km (CthPnkp) [mM],Km (purified protein [1]) [mM],Km (purified protein [2]) [mM]
"O=[N+]([O-])c1ccc(OP(=O)(O)c2ccccc2)cc1 [compound ②, p-nitrophenyl phenylphosphonate]",67,–,–
λ-Pase (Escherichia phage Lambda) (protein) MRYYEKIDGSKYRNIWVVGDLHGCYTNLMNKLDTIGFDNKKDLLISVGDLVDRGAENVECLELITFPWFRAVRGNHEQMMIDGLSERGNVNHWLLNGGGWFFNLDYDKEILAKALAHKADELPLIIELVSKDKKYVICHADYPFDEYEFGKPVDHQQVIWNRERISNSQNGIVKEIKGADTFIFGHTPAVKPLKFANQMYIDTGAVFCGNLTLIQVQGEGA,–,5.0 ± 0.1,10 ± 1.6
